Laboratory results from patent US20230227545A1 (published 2023).

Tests used:
human IL-1β [1] = target: T1, human IL-1β (human, UniProt P01584 117-269); assay: cell-based or functional assay
cynomolgus IL-1β [2] = target: T2, cynomolgus IL-1β (cynomolgus macaque, UniProt P79182 117-268); assay: cell-based or functional assay
T2 sequence (looked up): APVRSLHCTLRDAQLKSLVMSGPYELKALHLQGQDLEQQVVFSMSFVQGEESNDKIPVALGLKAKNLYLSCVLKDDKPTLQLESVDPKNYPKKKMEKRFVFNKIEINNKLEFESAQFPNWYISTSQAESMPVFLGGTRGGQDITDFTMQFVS

pig IL-1β = target: T3, pig IL-1β (pig, UniProt P26889 115-267); assay: SPR, Biacore 8K, mAb captured on anti-human Fc chip, soluble IL-1β as analyte
T3 construct: also called pig IL-β
T3 sequence (looked up): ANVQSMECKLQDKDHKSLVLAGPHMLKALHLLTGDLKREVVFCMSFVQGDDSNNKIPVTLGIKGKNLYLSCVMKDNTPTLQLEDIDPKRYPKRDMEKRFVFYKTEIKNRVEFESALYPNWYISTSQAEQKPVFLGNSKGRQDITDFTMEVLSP
Protocol: (§1) Affinity assessment of 05H21A, 15N14A, and 08F17A against human IL-1β was performed by Surface Plasmon Resonance (SPR) using a Biacore 8k. Cross-reactivity of the same antibody panel was also assessed against cyno, mouse, rat and pig IL-1β.
(§2) SPR is a label-free technique to study the strength of an interaction between two binding partners by measuring the change in mass upon complex formation and dissociation. Briefly, antibodies were immobilized on a sensor chip which was coupled with goat anti-human Fc (GAH-Fc C1 sensor chip). Soluble IL-1β was flowed over the immobilized antibody and association/dissociation responses were monitored. Kinetic information (on-rate and off-rate constants) were extracted by fitting sensorgrams to the 1:1 Langmuir model. Binding affinity (KD) were reported as the ratio of rate constants (koff/kₒₙ).

mouse IL-1β = target: T4, mouse IL-1β (mouse, UniProt P10749 118-269); assay: as above
T4 construct: also called mouse IL-β
T4 sequence (looked up): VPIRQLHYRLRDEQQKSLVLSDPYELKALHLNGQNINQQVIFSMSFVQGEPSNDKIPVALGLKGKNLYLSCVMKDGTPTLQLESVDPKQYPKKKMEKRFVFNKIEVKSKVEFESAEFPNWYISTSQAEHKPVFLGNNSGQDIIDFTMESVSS
Protocol: as §1, §2

cynomolgus IL-1β [3] = target: T2, cynomolgus IL-1β; assay: SPR, Biacore 8K, mAb captured on goat anti-human Fc C1 chip, soluble IL-1β as analyte, 1:1 Langmuir fit
Protocol: as §1, §2

human IL-1β [4] = target: T1, human IL-1β; assay: as above
Protocol: as §1, §2

rat IL-1β = target: T5, rat IL-1β (rat, UniProt Q63264 117-268); assay: as above
T5 construct: also called rat IL-β
T5 sequence (looked up): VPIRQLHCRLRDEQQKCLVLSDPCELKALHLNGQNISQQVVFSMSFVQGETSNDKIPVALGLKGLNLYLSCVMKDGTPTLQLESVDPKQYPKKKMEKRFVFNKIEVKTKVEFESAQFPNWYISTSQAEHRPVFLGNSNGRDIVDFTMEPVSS
Protocol: as §1, §2

human IL-1β [5] = target: T1, human IL-1β; assay: cell-based or functional assay; remark: listed apart in the source
human IL-1β [6] = target: T1, human IL-1β; assay: cell-based or functional assay; remark: listed apart in the source

IC30, inhibition of IL-6 release, human PBMCs (n=5 donors), 10 pM rhIL-1β (human IL-1β [1]): 32 pM
IC30, inhibition of IL-6 release, human PBMCs (n=5 donors), 30 pM rhIL-1β (human IL-1β [1]): 75 pM
IC50, inhibition of IL-6 release, human PBMCs (n=5 donors), 10 pM rhIL-1β (human IL-1β [1]): 56 pM
IC50, inhibition of IL-6 release, human PBMCs (n=5 donors), 30 pM rhIL-1β (human IL-1β [1]): 0.12 nM
IC90, inhibition of IL-6 release, human PBMCs (n=5 donors), 10 pM rhIL-1β (human IL-1β [1]): 0.226 nM
IC90, inhibition of IL-6 release, human PBMCs (n=5 donors), 30 pM rhIL-1β (human IL-1β [1]): 0.409 nM
IC30, inhibition of G-CSF release, cynomolgus lung fibroblasts (CLF), 15 pM rcynoIL-1β (cynomolgus IL-1β [2]): 0.129 nM
IC30, inhibition of IL-6 release, cynomolgus dermal fibroblasts (CDF), 5 pM rcynoIL-1β (cynomolgus IL-1β [2]): 93 pM
IC30, inhibition of IL-6 release, cynomolgus lung fibroblasts (CLF), 15 pM rcynoIL-1β (cynomolgus IL-1β [2]): 0.192 nM
IC50, inhibition of G-CSF release, cynomolgus lung fibroblasts (CLF), 15 pM rcynoIL-1β (cynomolgus IL-1β [2]): 0.261 nM
IC50, inhibition of IL-6 release, cynomolgus dermal fibroblasts (CDF), 5 pM rcynoIL-1β (cynomolgus IL-1β [2]): 0.156 nM
IC50, inhibition of IL-6 release, cynomolgus lung fibroblasts (CLF), 15 pM rcynoIL-1β (cynomolgus IL-1β [2]): 0.376 nM
IC90, inhibition of G-CSF release, cynomolgus lung fibroblasts (CLF), 15 pM rcynoIL-1β (cynomolgus IL-1β [2]): 1.63 nM
IC90, inhibition of IL-6 release, cynomolgus dermal fibroblasts (CDF), 5 pM rcynoIL-1β (cynomolgus IL-1β [2]): 0.594 nM
IC90, inhibition of IL-6 release, cynomolgus lung fibroblasts (CLF), 15 pM rcynoIL-1β (cynomolgus IL-1β [2]): 2.14 nM
binding result (pig IL-1β): no binding
binding result (mouse IL-1β): no binding
Kd (cynomolgus IL-1β [3]): 0.07 nM
koff (cynomolgus IL-1β [3]): 0.000209 s⁻¹
kon (cynomolgus IL-1β [3]): 3.01e+06 M⁻¹ s⁻¹
Kd (human IL-1β [4]): 0.064 nM
koff (human IL-1β [4]): 0.000141 s⁻¹
kon (human IL-1β [4]): 2.2e+06 M⁻¹ s⁻¹
Kd (rat IL-1β): 74.5 nM
koff (rat IL-1β): 0.0574 s⁻¹
kon (rat IL-1β): 771000 M⁻¹ s⁻¹
IC30, inhibition of rhIL-1β-induced cytokine release, NHDF donor 29114 (human IL-1β [5]): 0.069 nM
IC30, inhibition of rhIL-1β-induced cytokine release, NHLF donor 34325 (human IL-1β [5]): 0.128 nM
IC30, inhibition of rhIL-1β-induced cytokine release, NHLF donor 35234 (human IL-1β [5]): 0.09 nM
IC50, inhibition of rhIL-1β-induced cytokine release, NHDF donor 29114 (human IL-1β [5]): 0.127 nM
IC50, inhibition of rhIL-1β-induced cytokine release, NHLF donor 34325 (human IL-1β [5]): 0.253 nM
IC50, inhibition of rhIL-1β-induced cytokine release, NHLF donor 35234 (human IL-1β [5]): 0.178 nM
IC90, inhibition of rhIL-1β-induced cytokine release, NHDF donor 29114 (human IL-1β [5]): 0.626 nM
IC90, inhibition of rhIL-1β-induced cytokine release, NHLF donor 34325 (human IL-1β [5]): 1.48 nM
IC90, inhibition of rhIL-1β-induced cytokine release, NHLF donor 35234 (human IL-1β [5]): 1.04 nM
IC30, inhibition of rhIL-1β-induced CXCL5 release, human whole blood (5 donors) (human IL-1β [6]): 0.364 nM
IC30, inhibition of rhIL-1β-induced G-CSF release, human whole blood (5 donors) (human IL-1β [6]): 0.299 nM
IC30, inhibition of rhIL-1β-induced IL-6 release, human whole blood (5 donors) (human IL-1β [6]): 0.36 nM
IC50, inhibition of rhIL-1β-induced CXCL5 release, human whole blood (5 donors) (human IL-1β [6]): 0.603 nM
IC50, inhibition of rhIL-1β-induced G-CSF release, human whole blood (5 donors) (human IL-1β [6]): 0.52 nM
IC50, inhibition of rhIL-1β-induced IL-6 release, human whole blood (5 donors) (human IL-1β [6]): 0.595 nM
IC90, inhibition of rhIL-1β-induced CXCL5 release, human whole blood (5 donors) (human IL-1β [6]): 2.24 nM
IC90, inhibition of rhIL-1β-induced G-CSF release, human whole blood (5 donors) (human IL-1β [6]): 2.18 nM
IC90, inhibition of rhIL-1β-induced IL-6 release, human whole blood (5 donors) (human IL-1β [6]): 2.18 nM
B1: 15N14A (antibody, human IgG1, lambda, V domains shown)
VH: QVQLQESGPGLVKPSETLSLTCTVSGGSISSYYWTWIRQPAGKGLEWIGRIDSSGSSKYNPTLKSRVTMSVDTSKNQFSLKLSSVTAADTAVYYCARGDSGYDWAFDYWGQGTLVTVSS
VL: QAVLTQPSSLSASPGASASLTCTLRSGINVGTYRIYWYQQKPGSPPQYLLSYKSDSDKQQGSGVPSRFSGSKDASANVGILLISGLQSEDEADYYCMIWHSSAWVFGGGTKLTVLG
notes: Lambda light chain; also called 15N14A (anti-IL-1β) mAb [IgG1: YTE]
